# Reference: paper PMC6426604, “First Betalain-Producing Bacteria Break the Exclusive Presence of the Pigments in the Plant Kingdom” (mBio, 2019)
# Test system: N[C@@H](Cc1ccc(O)c(O)c1)C(=O)O
# Test: purified protein
# Type: biochemical, Gluconacetobacter diazotrophicus
# Details: 50 mM sodium phosphate pH 6.5, 10 mM sodium ascorbate, 25 °C, air
# Chain of GdDODA (4,5-DODA from Gluconacetobacter diazotrophicus) (Gluconacetobacter diazotrophicus PA1 5) (chain, as listed by the source): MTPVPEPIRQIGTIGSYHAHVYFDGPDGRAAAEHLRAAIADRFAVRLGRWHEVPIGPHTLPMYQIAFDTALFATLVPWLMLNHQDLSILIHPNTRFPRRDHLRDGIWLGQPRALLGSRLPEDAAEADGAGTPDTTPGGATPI
substance,measurement,value
"GdDODA (4,5-DODA from Gluconacetobacter diazotrophicus) (Gluconacetobacter diazotrophicus PA1 5)",Km,1360 ± 310 µM
same,kcat,0.00833 ± 0.000317 s⁻¹
